Assay results published in patent US20130338214.

Target: GST-labeled ROR1 (intracellular domain), recombinant, purified from Sf9 insect cells (UniProt Q01973)
Sequence (Q01973 428-937): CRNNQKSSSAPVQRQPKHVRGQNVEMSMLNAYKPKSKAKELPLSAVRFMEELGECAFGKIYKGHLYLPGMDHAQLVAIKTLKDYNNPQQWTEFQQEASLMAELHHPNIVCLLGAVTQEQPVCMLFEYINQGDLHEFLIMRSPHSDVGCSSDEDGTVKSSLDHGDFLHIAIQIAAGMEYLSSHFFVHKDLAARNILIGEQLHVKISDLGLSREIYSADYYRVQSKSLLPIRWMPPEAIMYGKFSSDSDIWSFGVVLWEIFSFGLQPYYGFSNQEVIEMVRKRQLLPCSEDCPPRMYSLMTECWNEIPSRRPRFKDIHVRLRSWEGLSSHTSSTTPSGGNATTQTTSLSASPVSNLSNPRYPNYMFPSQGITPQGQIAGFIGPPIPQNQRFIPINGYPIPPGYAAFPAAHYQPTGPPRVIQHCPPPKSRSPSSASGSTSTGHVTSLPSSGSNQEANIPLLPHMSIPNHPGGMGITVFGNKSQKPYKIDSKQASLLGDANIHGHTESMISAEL

Substance: endogenous c-Src (NCI-H1975, 293T, NCI-H23 cells)
- in vitro ROR1 kinase assay, western blot with anti-phospho-c-Src antibody (c-Src immunoprecipitated from NCI-H23 and 293T lysates as substrate): c-Src was phosphorylated by ROR1
